# Measurements from article PMC2864300, “Regulation of NOXO1 Activity through Reversible Interactions with p22^phox and NOXA1” (PLoS ONE, 2010).
# T1: mouse NOXO1 SH3AB–E (tandem SH3 domains plus the C-terminal portion of NOXO1) (mouse, UniProt Q8VCM2 160-349)
# T1 construct: mouse NOXO1, tandem SH3 domains plus the C-terminal portion; source: E. coli BL21 STAR, purified (glutathione Sepharose, PreScission cleavage, Superdex 75)
# T1 sequence (looked up): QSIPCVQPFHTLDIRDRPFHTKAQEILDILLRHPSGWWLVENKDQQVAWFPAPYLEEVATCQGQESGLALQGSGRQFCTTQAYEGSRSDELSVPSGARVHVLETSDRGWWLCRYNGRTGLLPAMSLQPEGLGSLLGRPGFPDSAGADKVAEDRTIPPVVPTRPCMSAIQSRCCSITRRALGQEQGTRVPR
# T2: human p22^phox cytoplasmic domain (p22^phoxC) (human)
# T2 construct: human p22phox, cytoplasmic domain; source: E. coli BL21 STAR, purified (glutathione Sepharose, PreScission cleavage, Superdex 75)
# T2 sequence (P13498 whole entry, looked up): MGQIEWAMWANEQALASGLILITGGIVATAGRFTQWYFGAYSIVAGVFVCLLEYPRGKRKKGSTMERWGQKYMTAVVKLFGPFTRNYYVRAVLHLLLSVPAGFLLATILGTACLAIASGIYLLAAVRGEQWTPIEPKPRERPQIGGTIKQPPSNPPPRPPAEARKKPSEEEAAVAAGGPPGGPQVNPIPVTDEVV
# B1: human NOXA1 SH3 domain (domain or fragment, UniProt Q86UR1 399-458, looked up)
# chain: PVLYQVVAQHSYSAQGPEDLGFRQGDTVDVLCEVDQAWLEGHCDGRIGIFPKCFVVPAGP
# notes: human NOXA1, carboxy-terminal SH3 domain; source: E. coli BL21 STAR, purified (glutathione Sepharose, PreScission cleavage, Superdex 75)
# B2: mouse NOXA1 SH3 domain (domain or fragment, UniProt Q8CJ00 369-428, looked up)
# chain: PVLYQVVAQYNYRAQRPEDLDFHQGDTVDVLCEVDEAWLEGHRDGCVGIFPKCFVVPAGA
# notes: mouse NOXA1, carboxy-terminal SH3 domain; source: E. coli BL21 STAR, purified (glutathione Sepharose, PreScission cleavage, Superdex 75)
# B3: human NOXO1 SH3AB–E (tandem SH3 domains plus the C-terminal portion of NOXO1) (domain or fragment)
# chain: LEAQSLRCLQPFCTQDTRDRPFQAQAQESLDVLLRHPSGWWLVENEDRQTAWFPAPYLEEAAPGQGREGGPSLGSSGPQFCASRAYESSRADELSVPAGARVRVLETSDRGWWLCRYGDRAGLLPAVLLRPEGLGALLSGTGFRGGDDPAGEARGFPEPSQATAPPPTVPTRPSPGAIQSRCCTVTRRALERRPRRQGRPRGCVDSVPHPTTEQ
# Legend:
# Test in all cases: ITC; MicroCal VP-ITC, 18°C; 150 mM NaCl, 1 mM DTT, 50 mM HEPES pH 7.4; typically 20–40 µM protein in the cell, 200–300 µM ligand injected; single-site binding model; averaged over three to five experiments
# Settings in all cases: both partners purified
# [1] = target: B3
# [2] = target: T1, mouse NOXO1 SH3AB–E (tandem SH3 domains …)
# human NOXA1 SH3 domain = target: B1
# mouse NOXA1 SH3 domain = target: B2
# [3] = target: T1, mouse NOXO1 SH3AB–E (tandem SH3 domains …); remark: listed apart in the source
# [4] = target: T2, human p22^phox cytoplasmic domain …
binder,measurement,setting,value
B1,dH,[1],-8.6 ± 0.7 kcal/mol
B2,Kd,[2],2.2 µM
same,dH,[2],-10.1 ± 0.8 kcal/mol
TAPPPTVPTRPSPGAIQSRCCTVTRRALE (also called long version of peptideA; source: synthetic peptide) [peptideA (amino acids 319–347 of human NOXO1)],Kd,human NOXA1 SH3 domain,5.8 µM
same,dH,human NOXA1 SH3 domain,-12.6 ± 0.6 kcal/mol
same,Kd,mouse NOXA1 SH3 domain,5.9 µM
same,dH,mouse NOXA1 SH3 domain,-7.6 ± 0.3 kcal/mol
"mouse p22^phox cytoplasmic domain (p22^phoxC) (domain or fragment, UniProt Q61462 127-192, looked up, mouse p22phox, cytoplasmic domain; also called murine p22^phox; source: E. coli BL21 STAR, purified (glutathione Sepharose, PreScission cleavage, Superdex 75)) RGEQWTPIEPKPKERPQVGGTIKQPPTNPPPRPPAEVRKKPSEGEEEAASAGGPQVNPMPVTDEVV",Kd,[3],0.78 µM
same,dH,[3],-7.1 ± 0.05 kcal/mol
"TAPPPTVPTRPS (also called PeptideA-short; short proline-rich motif-containing version of peptideA; source: synthetic peptide) [shorter version of peptideA, which only contains the proline rich region]",Kd,human NOXA1 SH3 domain,> 70 µM
B3,Kd,human NOXA1 SH3 domain,7.2 µM
same,Kd,[4],17.5 µM
